Where two headings read alike, the source gives them in different places.
What was measured:
[1] = target: extracellular domain of human CD47 (CD47-ECD), residues 1-118, with His6 tag and Avi tag (human) (UniProt Q08722); test: competition of the CD47/SIRPα interaction (% inhibition); the format is not stated for this panel, taken as the SIRPα competition ELISA of Example 1 with labelled SIRPα as competitor
[2] = target: extracellular domain of human CD47 (CD47-ECD), residues 1-118, with His6 tag and Avi tag (human) (UniProt Q08722); test: SPR (Biacore), scFv-hFc captured on anti-human IgG Fc CM5 chip, CD47 as analyte, 1:1 Langmuir model
[3] = target: extracellular domain of human CD47 (CD47-ECD), residues 1-118, with His6 tag and Avi tag (human) (UniProt Q08722); test: SPR (Biacore), scFv-hFc captured on anti-human IgG Fc CM5 chip, CD47 as analyte, 1:1 model; column head x 10^-3 applied
[4] = target: extracellular domain of human CD47 (CD47-ECD), residues 1-118, with His6 tag and Avi tag (human) (UniProt Q08722); test: SPR (Biacore), scFv-hFc captured on anti-human IgG Fc CM5 chip, CD47 as analyte, 1:1 model; column head x 10^6 applied
[5] = target: extracellular domain of human CD47 (CD47-ECD), residues 1-118, with His6 tag and Avi tag (human) (UniProt Q08722); test: phage-scFv ELISA on captured CD47-Bio
[6] = target: T1, extracellular domain of human CD47 (CD47-ECD), residues 1-118, with His6 tag and Avi tag (human, UniProt Q08722 19-136, biotin modification at the C-terminus (Avi tag, BirA) in the form called CD47-Bio); test: SPR (Biacore T200), IgG1 captured on CM5 chip, CD47 as analyte [Con't]
T1 construct: also called CD47-ECD-His6; CD47-Bio; not shown: His6 tag and Avi tag from the vector

[7] = target: T1, extracellular domain of human CD47 …; test: CD47 binding ELISA, bio-CD47 captured on neutravidin, full-length IgG1
Procedure: (§1) CD47 binding ELISA: 2 μg/mL of neutravidin (Sigma) in phosphate buffered saline (PBS) was coated in U-bottom 96-well plate (Nunc, MaxiSorp™), 100 μL per well, at 4° C. overnight or 37° C. for 1 hour. 2 μg/mL of bio-CD47 in PBS containing 2% nonfat milk were then captured onto the plates at 100 μL per well by incubation at 30° C. for 1 hour. […] In between each incubation step, the ELISA plate was washed for 6 times with PBST solution (0.05% Tween20 containing PBS) at 200 μL per well. Followed by HRP-conjugated antibody incubation, the ELISA signal was developed by incubating with TMB substrate (Sigma) for 5-10 mins at 30° C. and then stop the reaction with 2M H₂SO₄ at 50 μL per well. The absorbance at 450 nm was read by a microplate reader (Bio-Rad). For scFv-Fc or IgG1 based ELISA, the method was basically the same as described above for phage-scFvs except the bound antibodies were detected by HRP-conjugated mouse anti-human IgG Fc antibody (Sigma).
(§2) In FIG. 3, A. Antibodies in the form of full-length IgG1 were 3-fold serial diluted (starting at 10 nM, 12 concentrations total). B. Antibodies in the form of full-length IgG1 were 3-fold serial diluted (starting at 40 nM, 12 concentrations total).

[8] = target: T1, extracellular domain of human CD47 …; test: SIRPα competition ELISA, CD47-ECD-His6 coated, competitor 0.8 nM biotinylated SIRPα-d1-mFc
Procedure: (§3) The wash, development and read steps are the same as hCD47 binding ELISA. The OD450 values were transformed to Inhibition % in data analysis.
(§4) B. Antibodies in the form of full-length IgG1 were 3-fold serial diluted (starting at 40 nM, 12 concentrations total).

[9] = target: T1, extracellular domain of human CD47 …; test: self-competition of unlabelled SIRPα against labelled SIRPα for CD47 (% inhibition); the sheet prints only SIRPα, taken as the unlabelled SIRPα-d1-mFc of the competition ELISA of Example 1
[10] = target: T1, extracellular domain of human CD47 …; test: CD47 binding ELISA, bio-CD47 captured on neutravidin, full-length IgG1; remark: listed apart in the source
Procedure: as §1, §2

[11] = target: T1, extracellular domain of human CD47 …; test: SIRPα competition ELISA, CD47-ECD-His6 coated, competitor 0.5 nM biotinylated SIRPα-d1-mFc
Procedure: as §3, §4

[12] = target: T1, extracellular domain of human CD47 …; test: SPR (Biacore T200), IgG1 captured on CM5 chip, CD47 as analyte; the column head also prints x 10^6, not applied because kd/ka of the cells gives the KD cell in M [Con't]
Procedure: (§5) 1 μg/mL of anti-CD47 full length IgG1 antibodies were captured onto a CM5 chip for 30 s at 10 μl/min. CD47 in 2-fold serial dilutions (starting at 100 nmol, seven concentrations total) were injected over the antibody-bound surface for 120 s at 30 μl/min followed by a 240 s dissociation phase. After each cycle, the surface was regenerated with magnesium chloride.

[13] = target: T1, extracellular domain of human CD47 …; test: SPR (Biacore T200), IgG1 captured on CM5 chip, CD47 as analyte; the column head also prints x 10^-3, not applied because kd/ka of the cells gives the KD cell in M [Con't]
Procedure: as §5

[14] = target: T1, extracellular domain of human CD47 …; test: SPR (Biacore T200), IgG1 captured on CM5 chip, CD47 as analyte; the column head prints KD (nM), but the cell equals kd/ka in M [Con't]
Procedure: as §5

B1: BC18 scFv-hFc (Fc fusion, part only; not given: scFv linker, domain order, IgG1 Fc, not shown: another chain or arm of the molecule; a dimerising Fc or GST; small tags and cut ends)
VH: QVQLQQSGPGLVKPSETLSLTCTVSGDSINYHYWSWIRQPPGKGLEWIGYIYYSGSTTYNPSLKSRVTMSVDPSKNHFSLKLTSVTAADTALYFCARQRGAYDYWGQGTQVTVSS
VL: DIQLTQSPSSVSASVGDRVTIACRASQDIGSRLVWYQQRPGKAPKLLIYAASSLQSGVPSRFSGSGSGTDFTLTISSLQPEDFATYYCQQSYSTPYSFGQGTKLEIK
[1]
  IC50 (read off the curve): 10 nM
[2]
  Kd: 1.43 nM
[3]
  koff: 0.00328 s⁻¹
[4]
  kon: 2.41e+06 M⁻¹ s⁻¹

B2: BC18 phage-scFv (scFv, part only; not given: scFv linker, domain order, phage fusion, V domains shown, not shown: another chain or arm of the molecule; large carriers; small tags and cut ends)
VH: QVQLQQSGPGLVKPSETLSLTCTVSGDSINYHYWSWIRQPPGKGLEWIGYIYYSGSTTYNPSLKSRVTMSVDPSKNHFSLKLTSVTAADTALYFCARQRGAYDYWGQGTQVTVSS
VL: DIQLTQSPSSVSASVGDRVTIACRASQDIGSRLVWYQQRPGKAPKLLIYAASSLQSGVPSRFSGSGSGTDFTLTISSLQPEDFATYYCQQSYSTPYSFGQGTKLEIK
[5]
  optical density at 450 nm: > 0.2 OD450

B3: BC7 full-length human IgG1 (antibody, V domains shown)
VH: QVQLQQSGPGLVKPSETLSLTCTVSGDSINYHYWSWIRQPPGKGLEWIGYIYYSGSTTYNPSLKSRVTMSVDPSKNHFSLKLTSVTAADTALYFCARQRGAYDYWGQGTLVTVSS
VL: DIVMTQSPSSVSASVGDRVTITCRASQGIGSRLAWYQQKPGKAPQLLIYAASSLQSGVPSRFSGSGSGTEFTLTISSLQPDDFATYYCQQYNSFSPITFGQGTRLEIK
[6]
  Kd: 4.81 nM
  koff: 0.00394 s⁻¹
  kon: 816000 M⁻¹ s⁻¹
[7]
  EC50 (read off the curve): ~0.01 nM
[8]
  IC50 (read off the curve): ~4 nM

B4: BC7 phage-scFv (scFv, part only; not given: scFv linker, domain order, phage fusion, V domains shown, not shown: another chain or arm of the molecule; large carriers; small tags and cut ends)
VH: QVQLQQSGPGLVKPSETLSLTCTVSGDSINYHYWSWIRQPPGKGLEWIGYIYYSGSTTYNPSLKSRVTMSVDPSKNHFSLKLTSVTAADTALYFCARQRGAYDYWGQGTLVTVSS
VL: DIVMTQSPSSVSASVGDRVTITCRASQGIGSRLAWYQQKPGKAPQLLIYAASSLQSGVPSRFSGSGSGTEFTLTISSLQPDDFATYYCQQYNSFSPITFGQGTRLEIK
[5]
  optical density at 450 nm: > 0.2 OD450

B5: BC7 scFv-hFc (Fc fusion, part only; not given: scFv linker, domain order, IgG1 Fc, not shown: another chain or arm of the molecule; a dimerising Fc or GST; small tags and cut ends)
VH: QVQLQQSGPGLVKPSETLSLTCTVSGDSINYHYWSWIRQPPGKGLEWIGYIYYSGSTTYNPSLKSRVTMSVDPSKNHFSLKLTSVTAADTALYFCARQRGAYDYWGQGTLVTVSS
VL: DIVMTQSPSSVSASVGDRVTITCRASQGIGSRLAWYQQKPGKAPQLLIYAASSLQSGVPSRFSGSGSGTEFTLTISSLQPDDFATYYCQQYNSFSPITFGQGTRLEIK
[2]
  Kd: 3.27 nM
[3]
  koff: 0.006 s⁻¹
[4]
  kon: 1.84e+06 M⁻¹ s⁻¹

B6: BC7m04 (antibody, IgG1, V domains shown)
VH: QVQLQQSGPGLVKPSETLSLTCTVSGDSINYHYWSWIRQPPGKGLEWIGYIYYSGSTTYNPSLKSRVTMSVDPSKNHFSLKLTSVTAADTALYFCARQRGAYDYWGQGTLVTVSS
VL: DIVMTQSPSSVSASVGDRVTITCRASQDIGSRLAWYQQKPGKAPKLLIYAASSLQSGVPSRFSGSGSGTDFTLTISSLQPEDFATYYCQQYNSFSPITFGQGTRLEIK
[6]
  Kd: 1.55 nM
  koff: 0.00118 s⁻¹
  kon: 763000 M⁻¹ s⁻¹

B7: BC7m03 (antibody, IgG1, V domains shown)
VH: QVQLQQSGPGLVKPSETLSLTCTVSGDSINYHYWSWIRQPPGKGLEWIGYIYYSGSTTYNPSLKSRVTMSVDPSKNHFSLKLTSVTAADTALYFCARQRGAYDYWGQGTLVTVSS
VL: DIVMTQSPSSVSASVGDRVTITCRASQDIGSRLAWYQQKPGKAPQLLIYAASSLQSGVPSRFSGSGSGTEFTLTISSLQPDDFATYYCQQYNSFSPITFGQGTRLEIK
[6]
  Kd: 1.46 nM
  koff: 0.00118 s⁻¹
  kon: 806000 M⁻¹ s⁻¹

B8: BC18m03 (antibody, IgG1, V domains shown)
VH: QVQLQESGPGLVKPSETLSLTCTVSGDSINYHYWSWIRQPPGKGLEWIGYIYYSGSTTYNPSLKSRVTMSVDPSKNHFSLKLTSVTAADTALYFCARQRGAYDYWGQGTLVTVSS
VL: DIQLTQSPSSVSASVGDRVTIACRASQDIGSRLVWYQQRPGKAPKLLIYAASSLQSGVPSRFSGSGSGTDFTLTISSLQPEDFATYYCQQSYSTPYSFGQGTKLEIK
[6]
  Kd: 1.6 nM
  koff: 0.00122 s⁻¹
  kon: 762000 M⁻¹ s⁻¹

B9: SIRPα-d1-mFc fusion protein (Fc fusion, human, UniProt P78324 31-148, looked up)
chain: EEELQVIQPDKSVLVAAGETATLRCTATSLIPVGPIQWFRGAGPGRELIYNQKEGHFPRVTTVSDLTKRNNMDFSIRIGNITPADAGTYYCVKFRKGSPDDVEFKSGAGTELSVRAKP
modifications: biotinylated with Sulfo-NHS-SS-Biotin where used as the labelled ligand
notes: range 1-148; also called bio-SIRPα-d1-mFc; biotinylated SIRPα-d1-mFc; not shown: mouse IgG2a Fc fragment
[9]
  IC50 (read off the curve): ~4 nM

B10: B6H12 (antibody)
chain: EVQLVESGGDLVKPGGSLKLSCAASGFTFSGYGMSWVRQTPDKRLEWVATITSGGTYTYYPDSVKGRFTISRDNAKNTLYLQIDSLKSEDTAIYFCARSLAGNAMDYWGQGTSVTVSSGGGGSGGGGSGGGGSDIVMTQSPATLSVTPGDRVSLSCRASQTISDYLHWYQQKSHESPRLLIKFASQSISGIPSRFSGSGSGSDFTLSINSVEPEDVGVYYCQNGHGFPRTFGGGTKLEIK
[7]
  EC50 (read off the curve): ~0.02 nM

B11: AB6.12 (antibody, V domains shown)
VH: QMQLVQSGAEVKKTGSSVKVSCKASGFNIKDYYLHWVRQAPGQALEWMGWIDPDQGDTEYAQKFQDRVTITRDRSMSTAYMELSSLRSEDTAMYYCNAAYGSSSYPMDYWGQGTTVTVSS
VL: NIQMTQSPSAMSASVGDRVTITCKASQDIHRYLSWFQQKPGKVPKHLIYRANRLVSGVPSRFSGSGSGTEFTLTISSLQPEDFATYYCLQYDEFPYTFGGGTKVEIKR
[10]
  EC50 (read off the curve): ~0.2 nM
[11]
  IC50 (read off the curve): ~6 nM
[12]
  kon: 1.06e+06 M⁻¹ s⁻¹
[13]
  koff: 0.00186 s⁻¹
[14]
  Kd: 1.76 nM

Source: patent US20240076412A1 (NATIONAL INSTITUTE OF BIOLOGICAL SCIENCES BEIJING, published 2024)
